Measurements as given in patent publication US20210371505A1 (Regeneron, published 2021).

Target: Hemagglutinin of A/Wisconsin/67/2005 (H3N2) overexpressed on 3T3 cells (Influenza A virus A/Wisconsin/67/2005 …)
Test: cell-based or functional assay

B1: H1H14611N2 (antibody, V domains shown)
VH: EVQLVESGGGLVKPGGSLRLSCAASGFTFSGFSMNWVRQVPGKGLEWVSSISTSGNYMYYADSVKGRFTISRDNAKKSFSLQMNSLRAEDSAIYYCARGGGYNWNLFDYWGQGSLVTVSS
VL: EIVLTQSPGTLSLSPGERATLSCRASQSLNSNYLAWYQQKPGQAPRLLIYGASSRATGIPDRFSGSGSGTDFTLTITRLESEDFAVYYCQQYGNSPLTFGGGTKVEIK
- EC50, ADCC with human donor PBMCs (CytoTox-Glo): 0.146 nM
- EC50, FcγRIIIA activation in the ADCC-Glo reporter bioassay (Promega): 0.871 nM
